Laboratory results reported in the supplement of paper PMC10567573.

B1: RAD54B (parent)
chain: YVQEKRDGLKRRQQLEEELLRAKI
B2: VPS39 (parent)
chain: TTLLKCYLHTNVALVAPLLRLENN
B3: CHCHD3 (parent)
chain: YSGAYGASVSDEELKRRVAEELAL

Variants of: B1
Test: protein stability index of a GFP-peptide fusion (GPS, HEK-293T) (PSI 1-6); higher = more stable
Settings: c terminus: a fixed tail appended
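Also: lentivirally expressed fusions sorted by FACS into six bins by GFP to DsRed ratio, PSI derived from sequencing read proportions per bin multiplied by bin number.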

Protein stability index, by site and new letter:
Y1: E 3.68; L 3.56; T 3.59; M 3.95; K 3.74; D 4.4; S 4.37; C 3.52; H 3.91; W 3.92; R 3.77; N 3.74; Q 3.42; F 1.79; A 3.7; V 2.81; P 3.89; G 4.19; I 3.14
E4: A 1.83; G 2.13; M 1.84; C 2.57; L 1.67; D 1.68; I 1.35; H 1.6; N 1.89; F 1.89; K 2.28
Q3: L 1.75; T 2.94; Y 1.8; G 1.9; H 1.91; K 1.81; C 2.01; V 2.48; E 2.35; R 1.83; W 2.43; F 1.95; S 1.75; N 2.05; P 2.43; M 1.64; D 2.97; I 1.77; A 1.98
V2: C 3.08; A 3.72; P 3.2; I 2.84; N 3.73; M 3.65; H 2.55; S 4.01; Q 3.31; D 4.46; G 4.12; L 3.41; Y 3.56; E 4.64; F 3.62; T 3.75; R 3.82; K 3.82; W 3.35

Variants of: B2
Test: as above
Settings: c terminus: a fixed tail appended

Protein stability index, by site and new letter:
T2: R 2.85; L 3.5; A 1.61; Q 2.1
C6: L 3.27; N 1.91; I 1.15; T 2.56; A 1.25; Q 3.64; P 2.19; K 2.11; E 2.38
A16: P 3.28; R 2.05; D 3.39; G 2.87; M 2.02; H 3.78; E 2.57; W 1.72; N 2.16; T 2.94; S 5.08
K5: N 2.49; T 2.57; S 4.1; E 2.22; P 1.88; H 2.48; F 1.07
L18: K 2.08; E 1.55; F 2.06; P 2.27; M 3.28; T 2.51; Y 2.16
E22: W 1.4; K 1.79; S 2.82; A 1.66; M 2.31; R 2.64; C 1.92; H 2.49; I 1.99; V 1.69; D 2.71; L 2.73; N 2.13
L21: G 1.6; Q 2.14; E 2.09; D 1.59; F 3.04; P 2.73; M 3.38; W 2.05; S 1.63; H 1.51; C 3.59; T 2.9; N 3.2; K 1.74; Y 1.84; I 2.16
V12: S 3.9; T 3.04; F 2.91; Q 1.95; N 2.06; D 1.97; K 1.45
L4: S 3.47; D 1.35; V 3.82; W 1.78; K 2.01; R 2.48; G 3.33; M 3.92; H 2.36; F 3.81; P 1.74; Q 1.92; T 2.83; N 1.25
T1: Y 3.27; I 2.46; K 3.52; A 3.76; C 1.07; M 2.75
L19: E 2.02; P 1.52; H 1.7; Q 1.46; T 2.11; D 2.11; G 1.97; C 1.35; W 2.61; V 2.79
L3: T 2.58; I 2.18; D 2.22; P 1.96; G 1.84; W 3.19; A 3.88; K 2.1; Q 3.31; R 2.57; Y 3.01; N 3.03
P17: M 1.17; L 2.13; E 4.79; R 1.38
N24: C 3.2; I 2.02; H 3.11; Q 3.12; V 1.5; L 3.19; K 2.08; D 2.7
R20: V 2.63; T 3.38; P 3.33; Y 3.2; I 3.11; D 2.23; M 1.5; K 3.52; G 2.65; W 2.11; E 1.83
L8: H 1.82; A 2.49; R 2.35; K 1; V 2.7; I 3.7; G 1.57; M 4.41; F 4.45; W 2.17; D 1.75; P 1.13; Q 2.14; S 1.44; E 1.85; C 1.07; T 2.5; N 1.98
T10: H 2.79; L 2.35; W 1.94; G 3.27; E 1.46; Y 2.73; R 3.11
H9: T 3.1; P 1.59; F 2.82; N 3.08; Y 1.63
A13: D 1.36; R 1.57; M 2.14; W 3.55; K 2.63; V 3.55; P 2.2
N11: G 1.33; K 2.86; I 1.85; C 2.59; D 4; H 3.65; Q 4.1
V15: C 1.65; D 1.31; P 3.16; N 2.07; T 2.11; R 1.85; F 2.62; E 1.35; H 2.17; I 2.17; W 2.17
Y7: N 2.9; E 1.73; S 3.15; R 1.76; V 2.59; D 2.27; F 2.26; P 1.7; H 3.18
L14: Q 1.68; T 2.5; D 1.5; V 2.25; A 2.83; Y 3.67; P 1.9; M 2.27; E 1.57; I 3.28; F 1.55; H 3.13; N 2.16
N23: A 2.22; Y 2.99; K 2.27; F 2.11; H 2.29; T 2.32; M 2.81; Q 3.88; C 2.8; R 2.37; V 2.67; E 2.49; L 2.85; I 2.67; W 1.88

Variants of: B3
Test: as above
Settings: c terminus: a fixed tail appended

Protein stability index: each site, then its substitutions
L24: D 2.52; F 1.77; V 2.37; T 2.48; I 2.46; H 2.31; P 2.27; G 2.96; N 2.54; K 2.87; R 2.52; Y 2.5; C 2.79; A 2.62; E 2.92; W 2.33; S 2.31; Q 2.63; M 2.74
A23: P 3.31; I 2.52; Y 2.7; Q 2.58; W 2.87; T 3.13; S 2.19; H 2.71; G 3.02; F 2.97; M 2.65; L 2.72; N 2.97; V 2.55; K 2.71; R 2.26
